Results from US9457082B2, “Liposome including complex of hydrophobic active ingredient and polypeptide and use of the liposome” (Samsung Electronics Co., Ltd., priority 2013, dated 2016).

Tested on: HepG2 liver carcinoma cells
Test: Cytotoxicity, cell viability by CCK-8 kit
Type: cell-based
Conditions: about 5,000 HepG2 cells, 37° C., 46 hours
Description: The liposomes prepared in the same manner as in Example 1 were incubated with cells to confirm cell proliferation.
The liposomes prepared in the same manner as in Example 1 were added in different concentrations to about 5,000 HepG2 liver carcinoma cells, followed by being incubated at a temperature of 37° C. for 46 hours. The viability of the cultured cells was measured using a CCK-8 kit (Dojindo), and the results were shown in FIG. 7 (●: albumin, ▪: complex containing SRF and albumin).

albumin: albumin alone, control in the cytotoxicity test; Bovine Serum Albumin in Example 1
toxicity (cell viability): not toxic
